Experimental data published in patent US20170368136A1.

Assays:
CaMKII = experiment: cell-based or functional assay
CaMKIV = experiment: cell-based or functional assay

Sequence of CaMKII (chain, from a related filing, as listed by the source): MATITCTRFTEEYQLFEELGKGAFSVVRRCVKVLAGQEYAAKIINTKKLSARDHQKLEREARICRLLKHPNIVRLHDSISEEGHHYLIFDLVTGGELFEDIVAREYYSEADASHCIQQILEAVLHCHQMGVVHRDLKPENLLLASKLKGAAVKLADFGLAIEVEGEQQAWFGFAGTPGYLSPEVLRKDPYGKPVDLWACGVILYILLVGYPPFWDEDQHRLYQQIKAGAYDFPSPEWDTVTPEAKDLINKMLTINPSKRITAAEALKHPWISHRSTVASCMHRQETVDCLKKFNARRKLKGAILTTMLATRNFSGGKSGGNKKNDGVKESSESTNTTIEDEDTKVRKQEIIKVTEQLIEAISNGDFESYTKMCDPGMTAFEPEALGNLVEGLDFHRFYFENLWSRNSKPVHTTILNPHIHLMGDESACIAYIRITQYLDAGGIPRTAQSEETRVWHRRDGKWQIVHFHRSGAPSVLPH

Binder	IC50, phosphorylation of syntide 2 by CaMKII (CaMKII) [nM]	reduction of kinase activity in a kinase panel, 5 µM tatCN21 (CaMKIV) [%]
KRPPKLGQIGRSKRVVIEDDR [CN21a]	100	–
YGRKKRRQRRRKRPPKLGQIGRSKRVVIEDDR (modifications not checked) [tatCN21]	–	35
